A short description of this data set: label from the status in PepcDB records.
On to “MTKAIQSSVQVGELATGQALTVPIYSFMGSENSAPSVYIQANVHGAEVQGNAVIYQLMTLLEGYQVLGDITLAPLANPLGINQKSGEFTLGRFDPITGVNWNREYFDHNVDIQNWYAEHQHLTNSELFCAYRSMLVETCQARLTHSFGISTGHRLAVNLQAMAHQADIVLDLHTGPKSCKHLYCPEYDIDAARFFSIPYTLIIPNSFGGAMDEATFCPWWQLTEYATSQGREFSVPVSAFTLELASQERIDLADALEDAKGILAYLSHRGVIAEKVNPASMERFGCYLKDYKKFHAPKAGLIEYCASVGEPLTAGKPLVNILRIDLYGSEQAYQAISLPMDCVPILHFASASVLQGTELYKVMTNVFPLQPS”, for which the protein production result is “not failed”. As to “MGSLQPDAGNASWNGTEAPGGGARATPYSLQVTLTLVCLAGLLMLLTVFGNVLVIIAVFTSRALKAPQNLFLVSLASADILVATLVIPFSLANEVMGYWYFGKAWCEIYLALDVLFCTSSIVHLCAISLDRYWSITQAIEYNLKRTPRRIKAIIITVWVISAVISFPPLISIEKKGGGGGPQPAEPRCEINDQKWYVISSCIGSFFAPCLIMILVYVRIYQIAKRRTRVPPSRRGPDAVAAPPGGTERRPNGLGPERSAGPGGAEAEPLPTQLNGAPGEPAPAGPRDTDALDLEESSSSDHAERPPGPRRPERGPRGKGKARASQVKPGDSLPRRGPGATGIGTPAAGPGEERVGAAKASRWRGRQNREKRFTFVLAVVIGVFVVCWFPFFFTYTLTAVGCSVPRTLFKFFFWFGYCNSSLNPVIYTIFNHDFRRAFKKILCRGDRKRIV”, the protein production result is “failed”. Consider “MRPSAEALRDRPRCGIRPSMDYYDLGRHGRPVTTSSPEAQRWFDRGLVWTYAFHHEEAVACFEAAVAADPDCAMAHWGIAHALGPNYNKPWDAFDTEELTRTVDRTHAAVERAHALAGRATPAERALIDALRARYPQASAVEDCSVWNAPYADGMRAVYELAPDDLDVAALYADALMNLTPWQLWDLRTGLPAEGARTLAAKEVLDRALAAEGGRDHPGVVHLYIHLMEMSPTPEAALAVADRLRGLVPDAGHLLHMPSHLEVLCGDYRRVVSDNEAAIAADEKCLARSGAMNFYTLYRAHNHHFKIYGAMFLGRYEVALDAAARLEASVPEALLRVESPPMADWLEAFLAMRVHVLIRFGRWTDILALPLPDDPRLYCVTTAMLHYARGVALSATGRVAEAETERDLFRAAVDRVPGSRTLFNNTCADILAIASAMLDGELEYRRGNHTAAFAALERSVELDDNLPYDEPWGWMQPTRHAYGALLLEQGRTAEAEAVYRADLGLDDTLPRPLQHPNNVWALHGLHECLVRLGRAGEVRIVAQQLRFAAALADVPVEASCFCRLGTAPAAGGDAGCCATGQ”, for which the protein production entry was “failed”. On to “MKIALFGTSADPPTLAHRAILIWLAQHFDQVAVWAADNPFKQGPNPETGHWASLGDRQAMLKLLVEDVQKDYATVQIWEDLSDRRSLISLQRAQQRWGLEPDYALVVGADLIRQISQWYAVKELLPAVQLVIFPRPGYGINQADLDKLAQLGGHYQLVNQGDDQAITPPISSSIYRQIRDDDLIPDPVQSYIQQRQLYRQ”, for which the protein production entry is reported as “failed”. The result for “MIQQLLVTFPPMLFGAQALLTLLLIKGDICPGQRGRLHKMLPAIGVLWLAVASLRIEAFMVVFAIFYFYSQVQTKKTREKGPLWALHLANGLAFAYVSIQVFEQPNWPASAAMAVMIFFLGASFSQLLLTIARSRLQAFHRILPVTGIVSGMLLVLATLFSSYQLDEATLASATQPILISLALLISTIVVWCWHIFTHKAPEKVQLSIALLLALASMTSLQGLFALAV” reads “failed”; that for “MKNKGLIATLILLTILVVGELFYNKSEKRLNLSEKQVVKIGILQYVTHDALDAIEKGVEDGLAQEGYKGKKVKLTVLNAEADQSKIQAMSKQLVNHHNDILIGIATPSAQGLAASTKDTPIIMGAVSDPLGAKLVTNMKKPTTNVTGLSNVVPTKQTVQLIKDITPNIKRIGILYASSEDNSVSQVTEFTKYAQKAGLEVLKYSVPSTNEIKTSMSVMTKKVDAVFVPQDNTIASAFRTVIVAANQANIPVYSSVDTMVEQGSIASVAQSQYGLGLETAKQAIKVLRGKPVKDVPVKVIDTGKPSLNLKAAKHLGIKIPKKIMKQAEITVKVDD”, “failed”. For “MHSEHGRQNVKVELKGVHRVRRKLASGETAVYHYAWRGGPRIDAAPGSAEFVAAYNAAHAARDRPVHHDGTLQALITAYQKTPAFTDLAEATRKGYIRHIRQIEADFGDMPVQALADPRVRGEFLDWRDRLAQKSKRSADYAFSVLARILSWAHDRRKIPVNPCEKPGRLYTGSRADSIWTEAQIAAFLAVAPRPVRLPFLLAIWTGQRQADILQLTWTAYDGQAIRLRQSKTGRHMLIPVAQPLREAMEEAKARRRTLTICETSRGQPWTSDGFKTSFGKAQASAGIEGVTFHDLRGTAVTFLALAGCSVPEIAALTGHSLKDAEGILSKHYLGRDRRLGESAVAKLEKHGVGTPTVKRAVKRRGPEGGDSV”, the protein production result was “failed”. For “GMTGFVINTRRAPFDDWRLREALLLAFNFEFINDTVTGGVMPRITSYFSGTDLAYRPGTASGREAELLAPFAADLPPGTLEGYALPQGDGTARNRTNLRRAAQFLEQAGFRIEQGQLLGPDGAPLALRFLLRQGDSDMQTVLEIYTRALERLGIAAQIEKVDNAQYTARVAELDFDLTPFRRDLSLSPGNEQRLYWGSHSAGQPGTRNLMGAASPAIDAMIDRMLAATTEDELTAATRALDRVLTAGRYVIPIWR”, the protein production entry is “not failed”.

As to “MKLAKKMILAAAVLPLTLGTTAALAYGGHGWDKEGDGHCGDRGERGIWKQLDLTAEQQAQLKEMREAGREEMRANRGQSHDAMKALHAQERALVLAADFDQAAAENLAKQMVDQQVTHRVKMMEKRHQMMSILTAEQKAKLQTLQQEKMAECMQDGQHGKGKKHASQLEHHHHHH”, the protein production entry is “not failed”.

Consider “MTMPRLASSRWWYIMPIVFVTYSLAYLDRANYGFAAASGMADDLRITPGLSSLLGALFFLGYFFFQVPGAIYAEKRSVKKLIFVSLILWGGLATLTGMVANVYLLIGIRFLLGVVEAAVMPAMLVYLCHWFTRAERSRANTFLILGNPVTILWMSVVSGYLVEHFSWRWMFIIEGLPAVIWAFIWWRLVDDRPRQAAWLSGSEKRDLEDALAAEQQGIKPVKNYREAFRSPKVIVLSLQYFCWSIGVYGFVLWLPSILKHGANIDIIEAGWLSALPYLAAVIAMLGVSWASDRLQKRKRFVWPPLLIASIAFYGSYALGSEHFWLSYALLVLAGACMYAPYGPFFAIVPEVLPANVAGGAMALINSMGALGSFSGSWLVGYLNGITGGPGASYLFMSGALLLSVLLTVFLNPHADKREPDAARAHASRRAAPAHP”, for which the protein production entry was “failed”. For the sequence “MKTGKELKPGTVIRLENDPWLVQKAEFTKSGRNSAIMKTKLKNLLTGYKTEIVYSADDKLDDVILDRKEATLSFISGDTYTFMDTTDYTMYELNAEDIESVLPFVEEGMTDVCEAVFFDERLVSVELPTTIVRQVDYTEGSARGDTSGKVMKPAKLKNGTELSVADFIEIGDMIEIDTREGGSYKGRAKLEHHHHHH”, the protein production entry is reported as “failed”. On to “MADSENMYILSEDEDVCPTCLEEYTSENPKIVTKCSHHFHLSCIYEWMERSENCPVCGKVMEFNETP”, for which the protein production result is “failed”. For “MPEQTYMYAYVTLPHHDQRERYTQKCYRDGRRIVLASYDLMGSERFSFKEKLRKSMKGMNESAERWVSEVRQGENLNSIDNYYRLYKGKI”, the protein production result is given as “failed”.

Take “ADIVNLQGVTGGNTYSVPAVTMDLLSGKDVAVEEFPRKLLTFKEKLGEGQFGEVHLCEVEGMEKFKDKDFALDVSANQPVLVAVKMLRADANKNARNDFLKEIKIMSRLKDPNIIHLLAVCITDDPLCMITEYMENGDLNQFLSRHEPPNSSSSDVRTVSYTNLKFMATQIASGMKYLSSLNFVHRDLATRNCLVGKNYTIKIADFGMSRNLYSGDYYRIQGRAVLPIRWMSWESILLGKFTTASDVWAFGVTLWETFTFCQEQPYSQLSDEQVIENTGEFFRDQGRQTYLPQPAICPDSVYKLMLSCWRRDTKNRPSFQEIHLLLLQQGDE”: the protein production entry is on record as “failed”. Consider “MSVLPCFSLMCSLSLGEVKAVKIKPMLARLQSAMGRDDLIDQMVLLPEPQKGQTTQSINLIVGYDASPNSHTALDIACWIAHQTRLATNQQVTVQAVYVVEDSNTKNRSNILSFAKRLPTIELPPSETKKSSTSVITQPKLTGIKSYLQTDTLTPLQEADRIIWQARTLAEEWQGSFKSHLRFGCVSTELRKVAEFEAADILFLGCKSVYHPLIETLGYNFPCAVLGIPECIDE”, for which the protein production result is recorded as “failed”. As for “MLHLKVQFLDDSQKIFVVDQKSSGKALFNLSCSHLNLAEKEYFGLEFCSHSGNNVWLELLKPITKQVKNPKEIVFKFMVK”, the protein production entry is on record as “failed”. Take “MKKESLFRYAREHFNSEPEYLWSNLPDYAVLRHDHGDKWFGIVMSVRGSTLGLKTDDKVDILDVKVRPEYIGSLRQKEGVLPAYHMNKEHWISVILSGPLSTKEIHELLADSHELTSGLEHHHHHH”: the protein production entry is “not failed”.

On to “MIKEARLNDYMGDEVWYVPATRNMLNMLGIRTHYIDNNSTGVNIFLKEPLYVGKVVINIYGIKIEKSVREYPKIPELVRKLGINIEYLPFNYTKNESYWENLKLKIWEIAERNGFLEYETYSKFPGVYYVIPVENYERFMKELSNFSDIVVVPGYKYPDEENIHKYLNTEHPFLGKDLIALGMLANDKPLYWRLPGIIEHALIVLIVAFVSYKIARSYLATLISATFVALDPLLFATGIVAMLDIHVAFFVALFMLFLTIRRLRISGISLGLAAATKLSGAFVFPILWAKILKEEDLKEFIISGVVLPVIAFLVPEIPIIKAIGFIPWLEEFMGSFSWHLSFKGEHPAEAPFWLWFISLKPFPFHFNPDVYAVTDPILMISMIAFIFAVPYVSLRRKGLGEIFWMFWSIIGFFALQYILGGKTQFIFYATPLVPPGAVALGVISYEIIKWEYFERSVKIYMNYLRSLKEFIKR”, for which the protein production entry is given as “failed”.

As to “LGEICKAVLVDPSSNLTLDHWADKCGLSRRTLTRLFRRETGQSFSGWRQRVRLLEALARLGAGETVTGVALDVGYDSPSAFAAMFKRELGAAPRHYLR”, the protein production result is recorded as “failed”.

As for “MLETYALKNGAVFISDAHFLPKSPHLIHTLKELLSAKPPQVFFMGDIFHVLVGYLPLDKEQQKIIDLIHALSEISQVFYFEGNHDFSMRFVFNSKVMVFERQNQPVLFQYDNKRFLLAHGDLFITKAYEFYITQLTSTWARFFLTFLNLLSFKTLYPLFKKLIYQKPVRLWELEPKELQSFIEKRLKAYQNYIKDLNIGSIDGIIEGHFHLKSGAKIPLNTPIYCPLPSFYYEQSLFKVSSSVLEPSQNKDA”, the protein production result is listed as “failed”. On to “NNTPIGTLRIGCSSTMAQNVLARITAKMLKEYPGLSVNLVTGIPAPDLIADGLDVVIRVGALQDSSLFSRRLGSMPMVLCAAKSYLAQAGNPEKPADLAGHAWLEYSVRPDNEFVIIAPEGISTRLTPQGRFVTNDPMTL”, for which the protein production result is listed as “failed”. As for “MIRIDSVTKRYPDGTVAVDRLSLEIPDRSITVLVGPSGCGKTTTLRMINRMVEPSEGTILLDGADITKQPVNTLRRSMGYVIQNAGLFQHRTIVDNIATVPRMLGWGKERARSRARELMERVGLDASLARRYPYQLSGGQQQRVGVARALASDPPVLLMDEPFSAVDPVVRKGLQEELLRIQDELGKTIVFVTHDIDEAIRLGTMVAVMRTGGHLAQFAPPAELLSAPADAFVEDFLGTDRGIRRLSFFPSAGLELLTTPVVAIDSTAEQIAARGTPDVPYLLVTDVDGKALGWSEPKDLTAGKVVPERLLPYGRPFESGKDSLRAALDCAVLSPTGWAVAVDGTGRVVGVVSQETIGEAIRGAHAERRKADLAGLEHHHHHH”, the protein production result was “not failed”. The result for “SDESDLPSAMPAVPAFGVEERNMVSGVLTLAERSIRSIMTPRTDVSWVNIDDDAATIRQQLTAAPHSFFPVCRGSLDEVVGIGRAKDLVADLITEGRVRRNRLRDPIIVHESIGILRLMDTLKRSRGQLVLVADEFGAIEGLVTPIDVFEAIAGEFPDEDELPDIVA” reads “failed”.

For the origin of these results see a protein production outcome set (Wang et al. 2014).
